# Reference: patent US6638907 (BIOSTRATUM, dated 2003)
# Key:
# [1] = molecular target: integrin α6β1 on bovine adrenal microvascular endothelial (BCE) cells (bovine) (UniProt P53712); assay: cell-based or functional assay
# [2] = molecular target: α6-subunit containing integrins on mouse IBE (Immortomouse brain capillary endothelial) cells; assay: cell-based or functional assay
# [3] = molecular target: integrin α2 on HT-1080 cells (human) (UniProt P17301); assay: cell-based or functional assay
# [4] = molecular target: T1, disulfide-linked β1/γ1 dimer of r-laminin 8 (mouse β1, human γ1) (mouse; human, UniProt P02469 22-1786; P11047 34-1609); assay: non-reducing SDS-PAGE of anti-FLAG purified r-laminin 8
# T1 construct: mature; also called covalently associated dimers; the dimers
# From the text: The r-laminin 8 bound to anti-FLAG M2 matrix with high specificity. […] (FIG. 1) Under non-reducing conditions, the purified protein hardly entered the gel, which was to be expected as the predicted molecular weight for the mature trimer is at least 570 kD. A minor fraction of the purified trimer appeared as non-covalently associated (see discussion). In this fraction, the β1 and γ1 chains appeared as covalently associated dimers, whereas the α4 chain was non-covalently associated. Under reducing conditions, the protein appeared as a broad band at around 200 kD, which reacted on Western blots with α4, EHS, γ1, and anti-FLAG antibodies. The predicted molecular weights for mature α4, β1, and γ1 polypeptides are 200, 195, and 174 kD respectively. Laminins are heavily glycosylated, which may account for the slight discrepancy in molecular weight observed in SDS-PAGE.
# Chain of integrin α2 on HT-1080 cells (human) (P17301 30-1181): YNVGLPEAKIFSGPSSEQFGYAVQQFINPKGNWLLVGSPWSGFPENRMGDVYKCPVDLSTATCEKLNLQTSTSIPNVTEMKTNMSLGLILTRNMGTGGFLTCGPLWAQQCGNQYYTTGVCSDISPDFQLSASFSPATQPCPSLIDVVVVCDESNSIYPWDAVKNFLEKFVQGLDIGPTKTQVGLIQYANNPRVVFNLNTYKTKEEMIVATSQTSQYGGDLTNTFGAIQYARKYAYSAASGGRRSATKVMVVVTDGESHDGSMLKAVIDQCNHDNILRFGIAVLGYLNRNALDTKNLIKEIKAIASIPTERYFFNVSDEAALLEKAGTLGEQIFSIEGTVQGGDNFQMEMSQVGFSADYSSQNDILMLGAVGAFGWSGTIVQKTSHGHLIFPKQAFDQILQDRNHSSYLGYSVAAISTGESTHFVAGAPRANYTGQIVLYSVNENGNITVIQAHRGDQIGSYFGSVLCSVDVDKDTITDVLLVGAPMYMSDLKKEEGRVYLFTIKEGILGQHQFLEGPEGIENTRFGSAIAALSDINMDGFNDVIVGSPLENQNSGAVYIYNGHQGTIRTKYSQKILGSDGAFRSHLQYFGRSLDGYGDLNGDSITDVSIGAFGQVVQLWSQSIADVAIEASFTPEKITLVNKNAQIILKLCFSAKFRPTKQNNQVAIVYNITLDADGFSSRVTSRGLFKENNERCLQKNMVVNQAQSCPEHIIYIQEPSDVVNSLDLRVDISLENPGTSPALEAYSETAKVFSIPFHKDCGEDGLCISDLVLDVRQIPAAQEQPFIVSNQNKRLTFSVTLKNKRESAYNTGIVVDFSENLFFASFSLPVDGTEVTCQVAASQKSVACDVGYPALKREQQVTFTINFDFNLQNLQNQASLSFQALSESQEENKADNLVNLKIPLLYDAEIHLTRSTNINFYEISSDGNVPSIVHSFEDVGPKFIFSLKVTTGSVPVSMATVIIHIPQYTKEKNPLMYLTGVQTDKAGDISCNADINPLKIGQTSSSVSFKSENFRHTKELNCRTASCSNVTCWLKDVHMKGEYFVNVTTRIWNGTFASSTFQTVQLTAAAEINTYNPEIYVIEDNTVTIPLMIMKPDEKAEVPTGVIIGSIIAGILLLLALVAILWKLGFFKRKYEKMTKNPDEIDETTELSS
# Chain of integrin α6β1 on bovine adrenal microvascular endothelial (BCE) cells (bovine) (P53712 21-798): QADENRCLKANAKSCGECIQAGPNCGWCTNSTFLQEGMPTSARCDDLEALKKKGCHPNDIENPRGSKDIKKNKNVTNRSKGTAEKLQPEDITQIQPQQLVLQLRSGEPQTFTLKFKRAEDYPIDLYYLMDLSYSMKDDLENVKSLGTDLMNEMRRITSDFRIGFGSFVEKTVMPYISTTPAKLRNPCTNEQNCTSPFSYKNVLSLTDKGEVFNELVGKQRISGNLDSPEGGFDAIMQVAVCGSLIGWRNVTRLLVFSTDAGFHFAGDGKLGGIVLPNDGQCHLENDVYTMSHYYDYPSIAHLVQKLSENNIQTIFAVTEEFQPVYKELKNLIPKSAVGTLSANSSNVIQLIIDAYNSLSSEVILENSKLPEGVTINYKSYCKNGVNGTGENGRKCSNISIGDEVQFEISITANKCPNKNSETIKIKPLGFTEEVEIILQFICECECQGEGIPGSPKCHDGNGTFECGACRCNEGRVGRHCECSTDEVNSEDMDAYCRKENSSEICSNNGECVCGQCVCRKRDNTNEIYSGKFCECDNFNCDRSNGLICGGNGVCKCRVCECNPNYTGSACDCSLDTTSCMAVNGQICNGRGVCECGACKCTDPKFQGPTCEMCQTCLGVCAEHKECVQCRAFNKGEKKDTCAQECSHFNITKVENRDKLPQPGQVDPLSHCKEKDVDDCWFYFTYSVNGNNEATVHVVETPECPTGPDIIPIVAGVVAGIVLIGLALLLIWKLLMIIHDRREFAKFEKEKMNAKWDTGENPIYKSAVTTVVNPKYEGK
molecule,measurement,setting,value
"recombinant laminin 8 (human α4 chain with C-terminal FLAG epitope, mouse β1 chain, human γ1 chain) (from UniProt Q16363 25-1823; P02469 22-1786; P11047 34-1609)","BCE cell adhesion to coated r-laminin 8 with anti-β1 mAb AIIB2, percent blocked",[1],70%
same,"IBE cell adhesion to coated r-laminin 8 with anti-α6 mAb, percent blocked",[2],60%
collagen type IV from EHS-tumor (from UniProt P02463 28-1669; P08122 26-1707),"HT-1080 cell adhesion to Type IV collagen with anti-integrin α2 mAb, percent of control",[3],50%
"human laminin α4 chain containing a C-terminal FLAG epitope (other, The α4 chain alone, as the non-crosslinked partner in the minor fraction of r-laminin 8; also called FLAG-tagged α4 chain) ASGDDNAFPFDIEGSSAVGRQDPPETSEPRVALGRLPPAAEKCNAGFFHTLSGECVPCDCNGNSNECLDGSGYCVHCQRNTTGEHCEKCLDGYIGDSIRGAPQFCQPCPCPLPHLANFPESCYRKNGAVRCICNENYAGPNCERCAPGYYGNPFLIGSTCKKCDCSGNSDPNLIFEDCDEVTGQCRNCLRNTTGFKCERCAPGYYGDARIAKNCAVCNCGGGPCDSVTGECLEEGFEPPTGCDKCVWDLTDDLRLAALSIEEGKSGVLSVSSGAAAHRHVNEINATIYLLKTKLSERENQYALRKIQINNAENTMKSLLSDVEELVEKENQASRKGQLVQKESMDTINHASQLVEQAHDMRDKIQEINNKMLYYGEEHELSPKEISEKLVLAQKMLEEIRSRQPFFTQRELVDEEADEAYELLSQAESWQRLHNETRTLFPVVLEQLDDYNAKLSDLQEALDQALNYVRDAEDMNRATAARQRDHEKQQERVREQMEVVNMSLSTSADSLTTPRLTLSELDDIIKNASGIYAEIDGAKSELQVKLSNLSNLSHDLVQEAIDHAQDLQQEANELSRKLHSSDMNGLVQKALDASNVYENIVNYVSEANETAEFALNTTDRIYDAVSGIDTQIIYHKDESENLLNQARELQAKAESSSDEAVADTSRRVGGALARKSALKTRLSDAVKQLQAAERGDAQQRLGQSRLITEEANRTTMEVQQATAPMANNLTNWSQNLQHFDSSAYNTAVNSARDAVRNLTEVVPQLLDQLRTVEQKRPASNVSASIQRIRELIAQTRSVASKIQVSMMFDGQSAVEVHSRTSMDDLKAFTSLSLYMKPPVKRPELTETADQFILYLGSKNAKKEYMGLAIKNDNLVYVYNLGTKDVEIPLDSKPVSSWPAYFSIVKIERVGKHGKVFLTVPSLSSTAEEKFIKKGEFSGDDSLLDLDPEDTVFYVGGVPSNFKLPTSLNLPGFVGCLELATLNNDVISLYNFKHIYNMDPSTSVPCARDKLAFTQSRAASYFFDGSGYAVVRDIPRRGKFGQVTRFDIEVRTPADNGLILLMVNGSMFFRLEMRNGYLHVFYDFGFSSGRVHLEDTLKKAQINDAKYHEISIIYHNDKKMILVVDRRHVKSMDNEKMKIPFTDIYIGGAPPEILQSRALRAHLPLDINFRGCMKGFQFQKKDFNLLEQTETLGVGYGCPEDSLISRRAYFNGQSFIASIQKISFFDGFEGGFNFRTLQPNGLLFYYASGSDVFSISLDNGTVIMDVKGIKVQSVDKQYNDGLSHFVISSVSPTRYELIVDKSRVGSKNPTKGKIEQTQASEKKFYFGGSPISAQYANFTGCISNAYFTRVDRDVEVEDFQRYTEKVHTSLYECPIESSPLFLLHKKGKNLSKPKASQNKKGGKSKDAPSWDPVALKLPERNTPRNSHCHLSNSPRAIEHAYQYGGTANSRQEFEHLKGDFGAKSQFSIRLRTRSSHGMIFYVSDQEENDFMTLFLAHGRLVYMFNVGHKKLKIRSQEKYNDGLWHDVIFIRERSSGRLVIDGLRVLEESLPPTEATWKIKGPIYLGGVAPGKAVKNVQINSIYSFSGCLSNLQLNGASITSASQTFSVTPCFEGPMETGTYFSTEGGYVVLDESFNIGLKFEIAFEVRPRSSSGTLVHGHSVNGEYLNVHMKNGQVIVKVNNGIRDFSTSVTPKQSLCDGRWHRITVIRDSNVVQLDVDSEVNHVVGPLNPKPIDHREPVFVGGVPESLLTPRLAPSKPFTGCIRHFVIDGHPVSFSKAALVSGAVSINSCPAADYKDDDDK",binding result,[4],binds
